According to the supplement of paper PMC10065799, “High-throughput profiling of sequence recognition by tyrosine kinases and SH2 domains using bacterial peptide display” (eLife, 2023):

Tests used:
[1] = biological target: Fes (UniProt P07332); assay: phosphorylation enrichment, bacterial display (enrichment ratio); higher = better substrate or ligand; peptides without Tyr show the background
[2] = biological target: Fyn (UniProt P06241); assay: as above
[3] = biological target: FGFR3 (UniProt P22607); assay: as above
[4] = biological target: MERTK (UniProt Q12866); assay: as above
Chain of MERTK (Q12866 whole entry, looked up): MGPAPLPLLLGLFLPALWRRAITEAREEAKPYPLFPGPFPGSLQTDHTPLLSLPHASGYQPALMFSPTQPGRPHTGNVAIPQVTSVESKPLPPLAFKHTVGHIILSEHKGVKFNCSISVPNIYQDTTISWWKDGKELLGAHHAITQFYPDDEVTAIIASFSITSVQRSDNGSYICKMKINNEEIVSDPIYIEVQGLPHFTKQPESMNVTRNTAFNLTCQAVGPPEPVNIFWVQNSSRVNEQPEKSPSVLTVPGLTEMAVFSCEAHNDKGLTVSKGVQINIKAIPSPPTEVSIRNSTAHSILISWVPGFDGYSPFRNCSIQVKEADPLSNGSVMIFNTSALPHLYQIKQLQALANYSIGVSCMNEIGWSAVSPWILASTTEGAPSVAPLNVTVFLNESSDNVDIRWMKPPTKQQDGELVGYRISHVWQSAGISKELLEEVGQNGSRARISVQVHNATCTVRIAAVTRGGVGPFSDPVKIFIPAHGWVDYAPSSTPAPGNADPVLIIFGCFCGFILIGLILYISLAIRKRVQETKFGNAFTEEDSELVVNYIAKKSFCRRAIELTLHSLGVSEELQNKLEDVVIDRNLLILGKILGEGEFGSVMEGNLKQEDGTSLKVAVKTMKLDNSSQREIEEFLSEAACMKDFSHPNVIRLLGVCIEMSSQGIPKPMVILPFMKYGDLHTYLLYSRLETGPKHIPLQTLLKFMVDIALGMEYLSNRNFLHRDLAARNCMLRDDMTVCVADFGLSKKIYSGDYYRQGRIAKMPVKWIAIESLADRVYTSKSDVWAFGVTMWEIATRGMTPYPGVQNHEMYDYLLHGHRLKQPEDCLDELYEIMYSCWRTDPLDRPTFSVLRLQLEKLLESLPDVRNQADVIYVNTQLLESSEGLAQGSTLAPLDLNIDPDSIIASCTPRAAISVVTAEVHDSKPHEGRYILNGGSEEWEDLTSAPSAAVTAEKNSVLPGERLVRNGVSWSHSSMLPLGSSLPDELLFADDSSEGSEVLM

[5] = biological target: EPHB2 (UniProt P29323); assay: as above
[6] = biological target: FGFR1 (UniProt P11362); assay: as above
Chain of FGFR1 (P11362 whole entry, looked up): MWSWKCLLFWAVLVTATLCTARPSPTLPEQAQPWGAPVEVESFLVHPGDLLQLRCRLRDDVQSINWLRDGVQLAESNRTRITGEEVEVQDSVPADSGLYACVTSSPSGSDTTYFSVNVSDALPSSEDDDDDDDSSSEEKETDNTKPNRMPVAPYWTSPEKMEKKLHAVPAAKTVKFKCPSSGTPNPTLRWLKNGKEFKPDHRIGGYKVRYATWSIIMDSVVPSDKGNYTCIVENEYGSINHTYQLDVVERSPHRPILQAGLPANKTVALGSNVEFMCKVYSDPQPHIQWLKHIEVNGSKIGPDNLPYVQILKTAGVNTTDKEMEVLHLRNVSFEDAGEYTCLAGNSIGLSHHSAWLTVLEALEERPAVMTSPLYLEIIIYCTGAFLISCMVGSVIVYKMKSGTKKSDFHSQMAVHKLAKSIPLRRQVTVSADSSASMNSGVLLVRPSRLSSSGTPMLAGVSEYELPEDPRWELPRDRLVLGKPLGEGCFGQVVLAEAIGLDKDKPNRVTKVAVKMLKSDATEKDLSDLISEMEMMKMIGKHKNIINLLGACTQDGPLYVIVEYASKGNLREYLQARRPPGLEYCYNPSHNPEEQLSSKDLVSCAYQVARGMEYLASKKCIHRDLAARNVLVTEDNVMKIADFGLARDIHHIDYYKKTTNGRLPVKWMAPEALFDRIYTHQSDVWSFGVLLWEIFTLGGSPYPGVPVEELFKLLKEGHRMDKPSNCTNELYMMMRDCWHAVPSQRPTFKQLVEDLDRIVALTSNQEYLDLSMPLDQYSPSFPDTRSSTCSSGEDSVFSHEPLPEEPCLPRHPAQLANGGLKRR

[7] = system: AncSZ; assay: as above
[8] = system: Fer (mouse); assay: as above
[9] = biological target: Jak2 (UniProt O60674); assay: as above
[10] = biological target: EPHB1 (UniProt P54762); assay: as above
Chain of EPHB1 (P54762 whole entry, looked up): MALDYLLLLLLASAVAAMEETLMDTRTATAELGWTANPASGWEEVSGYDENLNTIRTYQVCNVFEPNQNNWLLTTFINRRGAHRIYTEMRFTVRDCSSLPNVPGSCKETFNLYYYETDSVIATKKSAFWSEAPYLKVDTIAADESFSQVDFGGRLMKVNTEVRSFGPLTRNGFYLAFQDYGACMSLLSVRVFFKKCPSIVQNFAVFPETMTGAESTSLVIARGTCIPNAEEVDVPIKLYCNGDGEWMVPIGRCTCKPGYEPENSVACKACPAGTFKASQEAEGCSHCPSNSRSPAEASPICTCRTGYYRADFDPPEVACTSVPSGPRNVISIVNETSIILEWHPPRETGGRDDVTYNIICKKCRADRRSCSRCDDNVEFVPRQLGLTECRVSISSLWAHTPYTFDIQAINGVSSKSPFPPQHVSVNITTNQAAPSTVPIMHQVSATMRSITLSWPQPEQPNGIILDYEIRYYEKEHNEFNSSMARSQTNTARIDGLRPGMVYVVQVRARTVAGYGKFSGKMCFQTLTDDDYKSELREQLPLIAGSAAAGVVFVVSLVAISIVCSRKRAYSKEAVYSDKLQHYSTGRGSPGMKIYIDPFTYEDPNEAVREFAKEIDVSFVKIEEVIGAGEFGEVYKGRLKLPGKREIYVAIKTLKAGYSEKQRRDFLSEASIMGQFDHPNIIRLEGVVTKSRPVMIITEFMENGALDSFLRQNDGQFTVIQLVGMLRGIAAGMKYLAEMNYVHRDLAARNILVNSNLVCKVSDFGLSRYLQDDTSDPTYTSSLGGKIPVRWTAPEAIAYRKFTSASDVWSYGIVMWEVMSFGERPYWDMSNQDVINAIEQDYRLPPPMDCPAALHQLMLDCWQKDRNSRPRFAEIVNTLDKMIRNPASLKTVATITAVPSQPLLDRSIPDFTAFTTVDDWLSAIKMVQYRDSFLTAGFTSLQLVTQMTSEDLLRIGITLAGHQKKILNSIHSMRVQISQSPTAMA

[11] = system: c-Src; assay: as above
[12] = system: c-Abl (mouse); assay: as above
[13] = biological target: Hck (UniProt P08631); assay: as above
Chain of Hck (P08631 whole entry, looked up): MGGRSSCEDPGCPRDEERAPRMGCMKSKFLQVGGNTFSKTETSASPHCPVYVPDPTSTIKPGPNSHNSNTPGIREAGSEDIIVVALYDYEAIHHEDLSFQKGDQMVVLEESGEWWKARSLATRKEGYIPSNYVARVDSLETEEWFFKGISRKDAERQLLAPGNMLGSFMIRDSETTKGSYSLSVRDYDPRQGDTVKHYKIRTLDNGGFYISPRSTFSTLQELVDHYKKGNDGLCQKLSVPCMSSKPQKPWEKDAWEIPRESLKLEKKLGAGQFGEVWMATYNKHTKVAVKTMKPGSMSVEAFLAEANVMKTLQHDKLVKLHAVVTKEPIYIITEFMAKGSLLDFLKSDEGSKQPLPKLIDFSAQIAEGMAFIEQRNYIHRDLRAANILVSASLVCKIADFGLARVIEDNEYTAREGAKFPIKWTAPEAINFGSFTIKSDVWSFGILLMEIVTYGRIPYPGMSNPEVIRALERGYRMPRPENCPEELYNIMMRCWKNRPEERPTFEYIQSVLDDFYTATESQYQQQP

[14] = biological target: SHP2-C SH2; assay: SH2 binding enrichment of the phosphorylated peptide, bacterial display (enrichment ratio); higher = better substrate or ligand; peptides without Tyr show the background
[15] = biological target: Grb2 SH2 (UniProt P62993); assay: as above
Chain of Grb2 SH2 (P62993 whole entry, looked up): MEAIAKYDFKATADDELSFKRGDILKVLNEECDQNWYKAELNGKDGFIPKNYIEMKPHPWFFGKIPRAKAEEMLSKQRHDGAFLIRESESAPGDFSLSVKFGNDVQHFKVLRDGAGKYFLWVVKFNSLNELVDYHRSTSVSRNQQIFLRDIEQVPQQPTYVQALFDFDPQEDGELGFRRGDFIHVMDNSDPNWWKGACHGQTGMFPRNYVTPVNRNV

[16] = biological target: c-Src SH2; assay: as above
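Wherever SH2 binding enrichment of the phosphorylated peptide, bacterial display is given: peptide library displayed on the E. coli surface as eCPX fusions, selected cells deep-sequenced, score is each peptide's frequency after selection divided by its frequency in the input.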
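Wherever phosphorylation enrichment, bacterial display is given: 11-residue human phosphosite peptides and single-mutation variants displayed on the E. coli surface, counted by deep sequencing, each peptide's frequency after selection divided by its frequency in the unselected input library; frequency after pTyr selection over input frequency; kinase dosed for 20-30% of maximal phosphorylation in three min.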

Chain of Fyn (P06241 whole entry, looked up): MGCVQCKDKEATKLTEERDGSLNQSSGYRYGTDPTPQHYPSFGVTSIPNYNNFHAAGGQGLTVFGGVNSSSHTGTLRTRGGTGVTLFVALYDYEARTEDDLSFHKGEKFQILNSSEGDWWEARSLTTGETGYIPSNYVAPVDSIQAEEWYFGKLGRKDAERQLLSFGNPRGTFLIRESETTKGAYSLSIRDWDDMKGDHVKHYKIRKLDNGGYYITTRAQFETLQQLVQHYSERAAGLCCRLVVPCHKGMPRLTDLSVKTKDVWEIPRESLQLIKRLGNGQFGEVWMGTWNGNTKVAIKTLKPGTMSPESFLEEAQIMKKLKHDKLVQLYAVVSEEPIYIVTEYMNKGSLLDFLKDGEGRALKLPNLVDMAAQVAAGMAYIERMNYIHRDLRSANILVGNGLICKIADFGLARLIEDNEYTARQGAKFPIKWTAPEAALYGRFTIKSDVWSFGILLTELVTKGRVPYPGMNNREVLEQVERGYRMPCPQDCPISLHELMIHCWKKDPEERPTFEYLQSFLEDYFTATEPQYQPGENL
Chain of Fes (P07332 whole entry, looked up): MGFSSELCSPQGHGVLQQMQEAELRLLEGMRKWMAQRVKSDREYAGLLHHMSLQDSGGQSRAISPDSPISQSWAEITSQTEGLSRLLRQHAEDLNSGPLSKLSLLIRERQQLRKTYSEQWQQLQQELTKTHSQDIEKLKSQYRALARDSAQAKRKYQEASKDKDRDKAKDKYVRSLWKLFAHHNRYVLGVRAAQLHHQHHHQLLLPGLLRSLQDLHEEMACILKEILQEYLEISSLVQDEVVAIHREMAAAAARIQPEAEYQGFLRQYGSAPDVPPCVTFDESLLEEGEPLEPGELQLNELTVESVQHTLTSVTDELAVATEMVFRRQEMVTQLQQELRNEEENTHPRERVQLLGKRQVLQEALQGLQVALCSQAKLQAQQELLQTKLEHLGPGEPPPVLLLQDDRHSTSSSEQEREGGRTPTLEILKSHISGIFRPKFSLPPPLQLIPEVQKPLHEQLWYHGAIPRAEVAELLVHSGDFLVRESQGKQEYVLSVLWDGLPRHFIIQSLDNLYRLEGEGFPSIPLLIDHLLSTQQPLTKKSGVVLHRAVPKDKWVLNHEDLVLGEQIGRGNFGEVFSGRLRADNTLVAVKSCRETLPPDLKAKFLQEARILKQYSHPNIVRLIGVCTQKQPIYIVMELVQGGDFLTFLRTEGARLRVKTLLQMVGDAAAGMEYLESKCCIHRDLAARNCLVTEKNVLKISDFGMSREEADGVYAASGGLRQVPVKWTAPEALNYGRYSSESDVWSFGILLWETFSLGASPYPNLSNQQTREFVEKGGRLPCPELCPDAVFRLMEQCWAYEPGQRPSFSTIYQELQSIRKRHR

Sequence	phosphorylation enrichment [1]	phosphorylation enrichment [2]	phosphorylation enrichment [3]	phosphorylation enrichment [4]	phosphorylation enrichment [5]	phosphorylation enrichment [6]	phosphorylation enrichment [7]	phosphorylation enrichment [8]	phosphorylation enrichment [9]	phosphorylation enrichment [10]	phosphorylation enrichment [11]	phosphorylation enrichment [12]	phosphorylation enrichment [13]	SH2 binding enrichment [14]	SH2 binding enrichment [15]	SH2 binding enrichment [16]
SPPPAFTPMSG [ERBB4_Y1056_Y1056F]	0.441	0.305	0.465	0.461	0.416	0.402	0.597	0.439	0.496	0.349	0.442	0.45	0.469	0.615	0.67	0.364
SQSKGYRPKLF [SIPA1L3_Y1376_G1371S_YF]	0.549	0.417	0.42	0.458	0.32	0.433	0.503	0.368	0.5	0.415	0.435	0.478	0.41	0.498	0.852	0.528
SRDTCYLVLAV [AMH_Y195_R194C]	1.48	0.555	1.12	0.552	0.684	0.786	1.52	0.62	1.4	0.719	0.666	1.06	0.651	0.616	0.752	0.453
SSYDIYHLSRE [KIR3DL2_Y253]	0.851	13	2.01	6.05	3.54	2.73	1.27	1.74	0.724	2.42	9.33	1.18	12.2	0.816	0.842	0.73
STEEQYRIRQV [EFHC1_Y115]	0.589	0.475	0.554	0.345	0.416	0.425	0.718	0.375	0.516	0.314	0.331	0.43	0.41	0.738	0.802	0.609
STGSRYQPLAS [NCAPD2_Y1325]	0.609	0.433	0.494	0.549	0.435	0.42	0.474	0.423	0.596	0.424	0.423	0.505	0.414	0.651	0.826	0.486
SVTCTYSAALN [TP53_Y126_P128A]	1.72	0.657	0.929	0.62	0.803	0.552	1.31	0.552	1.41	0.876	0.836	0.947	0.679	0.654	0.686	0.395
SVTCTYSPALF [TP53_Y126_N131Y_YF]	1.74	0.837	1.17	0.479	0.694	0.542	1.51	0.727	1.52	0.872	1	1.05	0.695	0.685	0.795	0.422
SVVVPYERPEV [TP53_Y220_P222R]	0.988	0.475	0.627	0.401	0.513	0.495	0.958	0.51	0.846	0.439	0.432	0.731	0.502	0.57	0.889	1.12
SWKRRYFLLRA [APBB1IP_Y331]	0.631	0.564	0.655	0.759	0.58	0.614	0.727	0.565	0.609	0.595	0.713	0.637	0.943	0.689	0.639	0.394
SYSGEYGGGGG [ZG16_Y30]	0.685	0.485	0.552	0.439	0.452	0.53	0.604	0.444	0.4	0.398	0.385	0.433	0.525	0.635	0.784	0.495
TDEFEYDELIV [TGM1_Y136_YF]	2.77	1.59	2.03	0.622	2.23	1.69	2.29	0.61	1.34	1.12	0.716	0.91	1.56	0.859	0.938	0.563
TFRPPYFHRNC [HGD_Y333_YF]	0.869	0.473	0.771	1.03	0.946	0.617	0.733	0.626	0.717	0.522	0.454	0.635	0.661	1.41	1.1	1.09
TFTVSYLPDMS [FLNC_Y1602_YF]	1.28	0.495	0.735	0.442	0.599	0.607	1.08	0.436	0.975	0.631	0.478	0.835	0.48	0.799	0.792	0.594
TFYQMYDKGLV [IARS2_Y231]	0.916	3.3	1.25	7.11	3.66	0.986	1.38	1.33	0.797	2.49	3.71	0.91	3.46	1.29	0.941	0.838
TGQEEYSAMRD [KRAS_Y64_A59T]	1	0.519	0.63	0.475	0.536	0.538	1.08	0.462	0.821	0.789	0.525	0.642	0.563	0.704	0.838	0.639
TLDTDYQMTKR [ADA_Y308]	0.781	0.483	0.584	0.363	0.504	0.462	0.77	0.697	0.632	0.45	0.35	0.499	0.445	0.597	0.92	0.558
